These results are taken from publication PMC8521305.

This assay addresses glycophorin A (GlyA) TMH. The assay is described as follows: SEC.

With “glycophorin A (GlyA) TMH (domain or fragment)”, the stoichiometry N (helices per nanodisc) came out at 2.
